The record followed here is article PMC13598120.

The test has as its target BLM, endogenous, P54132. Nature of the test: PLA (α-Flag + α-BLM). The settings on record: chain shown with the change, U2OS cells, 2 h, read off a plot.

B1: Flag-tagged GNL3 (Flag-GNL3), wild type, Q9BVP2 143VVLEVL149 to 143VAAEAL149 (SIMm) (protein)
chain: MKRPKLKKASKRMTCHKRYKIQKKVREHHRKLRKEAKKRGHKKPRKDPGVPNSAPFKEALLREAELRKQRLEELKQQQKLDRQKELEKKRKLETNPDIKPSNVEPMEKEFGLCKTENKAKSGKQNSKKLYCQELKKVIEASDVAAEALDARDPLGCRCPQVEEAIVQSGQKKLVLILNKSDLVPKENLESWLNYLKKELPTVVFRASTKPKDKGKITKRVKAKKNAAPFRSEVCFGKEGLWKLLGGFQETCSKAIRVGVIGFPNVGKSSIINSLKQEQMCNVGVSMGLTRSMQVVPLDKQITIIDSPSFIVSPLNSSSALALRSPASIEVVKPMEAASAILSQADARQVVLKYTVPGYRNSLEFFTVLAQRRGMHQKGGIPNVEGAAKLLWSEWTGASLAYYCHPPTSWTPPPYFNESIVVDMKSGFNLEELEKNNAQSIRAIKGPHLANSILFQSSGLTNGIIEEKDIHEELPKRKERKQEEREDDKDSDQETVDEEVDENSSGMFAAEETGEALSEETTAGEQSTRSFILDKIIEEDDAYDFSTDYV
Regarding B1, the response (PLA dots per cell) by setting is: (20 μM ETO, parent: est. 100) 24; (DMSO, parent: est. 13) 5.
